Experimental data: paper PMC7890179, “Adiponectin forms a complex with atherogenic LDL and inhibits its downstream effects” (Journal of Lipid Research, 2020)
Blank lines part the entries; values can stand above or below the molecule they belong to.

Tests used:
[1] = target: copper-oxidized low density lipoprotein (human (endogenous in human plasma)); test: ELISA; native LDL or oxLDL (1 μg/ml) captured on anti-apoB monoclonal antibody HUC20 on a 384-well plate; recombinant adiponectin added for 1 h at 25°C, washed with PBS, detected with anti-adiponectin polyclonal antibody; apparent Kd, 1:1 reversible binding assumed
[2] = target: copper-oxidized low density lipoprotein (human (endogenous in human plasma), oxidized with 7.5 μM CuSO4 for 16 h (residues not stated)); test: as above; settings: both partners purified

- Kd [1]: 45.3 nM
Molecule: globular form of adiponectin protein with an N-terminal His-tag sequence (domain or fragment; other documents disagree on this pair)

- Kd [2]: 15.7 nM
B1: Human recombinant full-length adiponectin protein (composed of the LMW, MMW, and HMW isoforms) with a C-terminal FLAG sequence (natural protein, UniProt Q15848 19-244, looked up)
chain: ETTTQGPGVLLPLPKGACTGWMAGIPGHPGHNGAPGRDGRDGTPGEKGEKGDPGLIGPKGDIGETGVPGAEGPRGFPGIQGRKGEPGEGAYVYRSAFSVGLETYVTIPNMPIRFTKIFYNQQNHYDGSTGKFHCNIPGLYYFAYHITVYMKDVKVSLFKKDKAMLFTYDQYQENNVDQASGSVLLHLEVGDQVWLQVYGEGERNGLYADNDNDSTFTGFLLYHDTN
notes: adiponectin, human, full-length recombinant protein; A mixture of trimers (LMW), hexamers (MMW) and HMW multimers; Secreted from HEK293 cells, so the signal peptide is probably absent (surmised); also called AdN; human recombinant full-length AdN; source: bought: BioVendor cat. no; RD172023100, produced in HEK293 cells
